Data: article PMC4231325 (Scientific Reports, 2014)

Target: the molecule itself
Assay: AUC

B1: SYCE3 (purified recombinant protein) (natural protein, Mus musculus, UniProt B5KM66 1-88, looked up)
chain: MADSDPGERSYDNMLKMLSDLNKDLEKLLEEMEKISVQATWMAYDMVVMRTNPTLAESMRRLEDAFLNCKEEMEKNWQELLTETKRKQ
- stoichiometry N: 2
